Assay results from the Immune Epitope Database (IEDB).

Legend:
Experiment in all cases: IEDB peptide-MHC binding, purified MHC/competitive/radioactivity; filed as Kd, often an IC50 or EC50 that approximates it; ≥ and ≤ were set here for values at or beyond the usual limits of such assays
HLA-A*02:06 = target: HLA-A*02:06
HLA-A*02:02 = target: HLA-A*02:02
HLA-A*02:03 = target: HLA-A*02:03
[1] = source organism: Vaccinia virus WR
[2] = source organism: Mammarenavirus juninense
[3] = source organism: Dengue virus 2 Jamaica/1409/1983
[4] = source organism: Dengue virus 1 Brazil/97-11/1997
[5] = source organism: SARS coronavirus Tor2

Sequence	Kd (HLA-A*02:06; [1])	Kd (HLA-A*02:02; [1])	Kd (HLA-A*02:03; [1])	further results
AADLTQIFEV	10.9 nM	1240 nM	404 nM	–
AIKQYGDIDL	≥ 69800 nM	≥ 23400 nM	≥ 46400 nM	–
ALEPRKEIDV	≥ 63300 nM	8370 nM	11200 nM	–
ALINLVQYRI	417 nM	8.32 nM	81.6 nM	–
ALNIALVAV	–	–	–	Kd (HLA-A*02:06; [2]): 370 nM; Kd (HLA-A*02:02; [2]): 15.3 nM; Kd (HLA-A*02:03; [2]): 4.46 nM
ALVSDCASTI	240 nM	94.2 nM	52.1 nM	–
AMHTALTGA	–	–	–	Kd (HLA-A*02:03; [3]): 15.1 nM
AVLDDGIYRI	–	–	–	Kd (HLA-A*02:06; [4]): 10.5 nM
CTIVDSMII	4580 nM	13900 nM	1790 nM	–
DVEKRILNTI	10800 nM	≥ 21000 nM	12600 nM	–
ELPVKTDIV	11500 nM	≥ 23000 nM	8060 nM	–
ETLFGSYIT	15300 nM	2490 nM	2440 nM	–
EVNDTHYTV	4780 nM	133 nM	115 nM	–
FICNLLLLFV	–	–	–	Kd (HLA-A*02:06; [5]): 3.96 nM; Kd (HLA-A*02:02; [5]): 2.47 nM; Kd (HLA-A*02:03; [5]): 14.6 nM
FIMRNFLRSI	0.447 nM	27.7 nM	0.118 nM	–
FLAFVVFLL	–	–	–	Kd (HLA-A*02:06; [5]): 2.57 nM; Kd (HLA-A*02:02; [5]): 0.411 nM; Kd (HLA-A*02:03; [5]): 87.9 nM
FLLVTLAIL	–	–	–	Kd (HLA-A*02:06; [5]): 0.476 nM; Kd (HLA-A*02:02; [5]): 0.645 nM; Kd (HLA-A*02:03; [5]): 0.97 nM
FMSHVKSVT	4320 nM	508 nM	181 nM	–
FVFDRPLPV	–	–	–	Kd (HLA-A*02:06; source organism: Homo sapiens): 2.38 nM
GAFMYTKHSM	3140 nM	544 nM	458 nM	–
GALYLGHSA	792 nM	7500 nM	1900 nM	–
GLFGKGGIV	–	–	–	Kd (HLA-A*02:03; [3]): 11 nM
GLTADARLL	–	–	–	Kd (HLA-A*02:03; source organism: Homo sapiens): 362 nM
GMMQNDYGGM	12000 nM	103 nM	589 nM	–
GMSIVCIVAA	1220 nM	161 nM	231 nM	–
GVVTTSGTYV	–	–	–	Kd (HLA-A*02:06; [4]): 665 nM
IISYIILFIL	3930 nM	66.2 nM	489 nM	–
ILDNAAKYV	1810 nM	126 nM	261 nM	–
KADAVVADL	2210 nM	5140 nM	12400 nM	–
LLAIGCYSQV	–	–	–	Kd (HLA-A*02:03; [3]): 8.28 nM
